From patent US20230250178A1 (published 2023)
Where two headings read alike, the source gives them in different places.

Legend:
human CCR8 [1] = biological target: T1, human CCR8 (human, UniProt P51685 1-355); experiment: FACS screening, full length human IgG1
T1 construct: also called hCCR8; P51685_CCR8_HUMAN

cynomolgus CCR8 [2] = biological target: T2, cynomolgus CCR8 (cynomolgus, UniProt O97665 1-356 (rhesus entry)); experiment: FACS screening, full length human IgG1
T2 construct: also called cynoCCR8; G7NYJ2_CCR8_MACFA
T2 sequence (O97665 other isoform, or with tags, fused parts or gaps): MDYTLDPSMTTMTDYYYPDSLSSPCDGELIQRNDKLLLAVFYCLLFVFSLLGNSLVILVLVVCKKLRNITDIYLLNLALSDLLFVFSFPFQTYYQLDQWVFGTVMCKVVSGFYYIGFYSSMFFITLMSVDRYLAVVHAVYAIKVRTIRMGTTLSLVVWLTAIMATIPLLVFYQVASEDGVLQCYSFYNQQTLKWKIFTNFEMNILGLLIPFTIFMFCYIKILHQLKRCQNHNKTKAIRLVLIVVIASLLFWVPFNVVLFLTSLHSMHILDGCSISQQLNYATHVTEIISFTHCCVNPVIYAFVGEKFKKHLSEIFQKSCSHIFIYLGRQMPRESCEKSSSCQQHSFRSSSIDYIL

human CCR8 [3] = biological target: T1, human CCR8; experiment: FACS, CHO-hCCR8
cynomolgus CCR8 [4] = biological target: T2, cynomolgus CCR8; experiment: FACS, CHO-cynoCCR8
[5] = biological target: T3, Cyno_TRD_Ys peptide (# 2) (cynomolgus, Y(SO3) at printed positions 4, 16, 18 (Y3, Y15, Y17 of CCR8); C-terminal K(Biot)); experiment: SPR, peptide on SA chip
T3 construct: sulfated
T3 peptide: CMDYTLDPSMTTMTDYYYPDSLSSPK
Procedure: (§1) SPR binding assays were performed to systematically evaluate antibody binding to a) non-sulfated vs sulfated antigen, b) TRD vs N term and c) human vs cynomolgus CCR8. SPR binding assays were performed on a Biacore T200 instrument (Cytiva) at 25° C. with assay buffer 1× HBS-EP+(order no. BR100826, Cytiva). Peptides were used as ligands and were captured using their C-terminal biotin label on to a streptavidin coated sensor chip (“Sensor Chip SA”, Order No. BR100398, Cytiva). To this end, a terminal lysine (K) was added at the C-term of each peptide for biotinylation. For the N term of CCR8, the naturally occurring cysteine between TRD and LID domain was replaced by a serine. […] The concentration of analyte in assay buffer was 0.05-10 nM and the measurement was performed in multicycle kinetics mode. The sensor surface was regenerated with glycine pH 2.0 after each cycle. Obtained sensorgrams were double referenced (subtraction of reference flow cell signal and buffer injection) and were fitted to a 1:1 Langmuir binding model to derive kinetic data using the Biacore T200 Evaluation software.

[6] = biological target: T4, HUMAN_TRD_Ys peptide (# 4) (human, Y(SO3) at printed positions 4, 16, 18 (Y3, Y15, Y17 of CCR8); C-terminal K(Biot)); experiment: SPR, peptide on SA chip
T4 construct: sulfated
T4 peptide: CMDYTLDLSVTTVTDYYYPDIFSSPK
Procedure: as §1

[7] = biological target: T5, Cyno_NTerm_Ys peptide (# 6) (cynomolgus, Y(SO3) at printed positions 4, 16, 18 (Y3, Y15, Y17 of CCR8); C-terminal K(Biot)); experiment: SPR, peptide on SA chip
T5 construct: sulfated; natural cysteine between TRD and LID replaced by serine
T5 peptide: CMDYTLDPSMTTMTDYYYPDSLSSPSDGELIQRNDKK
Procedure: as §1

[8] = biological target: T6, HUMAN_NTerm_Ys peptide (# 8) (human, Y(SO3) at printed positions 4, 16, 18 (Y3, Y15, Y17 of CCR8); C-terminal K(Biot)); experiment: SPR, peptide on SA chip
T6 construct: sulfated; natural cysteine between TRD and LID replaced by serine
T6 peptide: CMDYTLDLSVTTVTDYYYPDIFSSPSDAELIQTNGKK
Procedure: as §1

human CCR8 [9] = biological target: T1, human CCR8; experiment: FACS
cynomolgus CCR8 [10] = biological target: T2, cynomolgus CCR8; experiment: FACS
murine CCR8 [11] = biological target: T7, murine CCR8 (mouse, UniProt P56484 1-353); experiment: FACS, CHO-mCCR8
T7 construct: also called mCCR8; P56484_CCR8_MOUSE
T7 sequence: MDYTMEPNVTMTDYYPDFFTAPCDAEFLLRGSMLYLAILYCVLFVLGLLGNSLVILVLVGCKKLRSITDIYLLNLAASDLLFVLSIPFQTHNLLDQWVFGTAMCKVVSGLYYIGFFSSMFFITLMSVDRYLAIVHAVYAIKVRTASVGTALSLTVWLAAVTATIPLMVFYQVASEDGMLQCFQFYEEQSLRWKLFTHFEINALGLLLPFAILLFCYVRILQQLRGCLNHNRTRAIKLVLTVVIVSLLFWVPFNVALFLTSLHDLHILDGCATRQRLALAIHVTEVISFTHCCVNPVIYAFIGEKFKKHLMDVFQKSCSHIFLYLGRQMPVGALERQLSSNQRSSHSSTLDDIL

murine CCR8 [12] = biological target: T7, murine CCR8; experiment: cell-based or functional assay
human CCR8 [13] = biological target: T1, human CCR8; experiment: FACS, CHO-hCCR8; remark: listed apart in the source
cynomolgus CCR8 [14] = biological target: T2, cynomolgus CCR8; experiment: FACS, CHO-cynoCCR8; remark: listed apart in the source
human FcRn = biological target: T8, human FcRn (human, UniProt P55899 24-297); experiment: SPR pH 6.0, FcRn immobilised
T8 construct: also called neonatal Fc receptor
T8 sequence (P55899 24-297 limits assumed, form in doubt): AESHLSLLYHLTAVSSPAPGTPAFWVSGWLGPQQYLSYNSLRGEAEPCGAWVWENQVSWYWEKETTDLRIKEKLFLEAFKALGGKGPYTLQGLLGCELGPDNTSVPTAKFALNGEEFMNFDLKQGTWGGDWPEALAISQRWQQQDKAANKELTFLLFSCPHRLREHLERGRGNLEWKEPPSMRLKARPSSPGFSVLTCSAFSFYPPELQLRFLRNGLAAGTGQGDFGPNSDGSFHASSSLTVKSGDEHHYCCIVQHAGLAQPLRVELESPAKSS

cynomolgus FcRn = cynomolgus FcRn (cynomolgus, UniProt Q8SPV9 24-297, limits assumed); experiment: SPR pH 6.0, FcRn immobilised
Sequence of cynomolgus FcRn (Q8SPV9 24-297 limits assumed, form in doubt): as the sequence (P55899 24-297 limits assumed, form in doubt) above, with N39D, E44Q, G99S, S189G, S190N, L217M, S269T counted along it

mouse FcRn = biological target: T9, mouse FcRn (mouse, UniProt Q61559 22-297, limits assumed); experiment: SPR pH 6.0, FcRn immobilised
T9 sequence (looked up): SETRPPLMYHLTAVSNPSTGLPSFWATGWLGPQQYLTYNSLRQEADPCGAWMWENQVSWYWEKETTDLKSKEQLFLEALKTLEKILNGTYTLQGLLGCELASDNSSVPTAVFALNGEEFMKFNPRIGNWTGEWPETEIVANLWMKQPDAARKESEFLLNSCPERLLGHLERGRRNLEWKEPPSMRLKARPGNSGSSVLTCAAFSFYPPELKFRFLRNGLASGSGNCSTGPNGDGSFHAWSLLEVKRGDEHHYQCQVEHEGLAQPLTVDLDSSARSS

human CCR8 [15] = biological target: T1, human CCR8; experiment: FACS, HuT78 (endogenous hCCR8)
[16] = biological target: T10, FcRn of the FcRn column (Roche, Order No. 8128057001); experiment: FcRn affinity chromatography, pH gradient
T10 construct: also called immobilized FcRn
T10 sequence (P55899 24-297, chain 1 of 2): as the sequence (P55899 24-297 limits assumed, form in doubt) above
T10 sequence (P61769 21-119, chain 2 of 2, further chain): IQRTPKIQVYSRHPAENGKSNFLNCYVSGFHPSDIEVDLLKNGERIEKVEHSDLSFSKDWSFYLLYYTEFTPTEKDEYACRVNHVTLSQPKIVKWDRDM
Procedure: A FcRn column (Roche, Order No. 8128057001; prepacked with approximately 1 mL resin; binding capacity: ≥100 μg IgG) was equilibrated with running buffer A: 20 mM MES/HCl pH 5.5 140 mM NaCl. 30 μL of each antibody (1 mg/mL in equilibration buffer) was applied to the column.

B1: TPP-17575 (antibody, human IgG1, lambda, V domains shown)
VH: EVQLLESGGGLVQPGGSLRLSCAASGFTFRSYAMHWVRQAPGKGLEWVSLISWDGGSTYYADSVKGRFTISRDNSKNTLYLQMNSLRAEDTAVYYCARGGIGRRPGLEYWGQGTLVTVSS
VL: QSVLTQPPSASGTPGQRVTISCSGSSSNIGNNYVSWYQQLPGTAPKLLIYGNSNRPSGVPDRFSGSKSGTSASLAISGLRSEDEADYYCQTWGTGIRVFGGGTKLTVLG
notes: also called 497A-M181-C17-1-hIgG1Lambda
binding result (human CCR8 [1]): binds | binding result (cynomolgus CCR8 [2]): binds

B2: TPP-21181 (antibody, human IgG1, lambda, V domains shown)
VH: EVQLLESGGGLVQPGGSLRLSCAASGFTFSSYAMSWVRQAPGKGLEWVSGIRWNNGSKGYAGSVKGRFTISRDNSKNTLYLQMNSLRAEDTAVYYCARSGNYYYGYHGMDVWGQGTLVTVSS
VL: QSVLTQPPSASGTPGQRVTISCSGGNSNIGTYFVSWYQQLPGTAPKLLIYTNNQRPSGVPDRFSGSKSGTSASLAISGLRSEDEADYYCETWDSNTRVFGGGTKLTVLG
notes: also called 18205-gl46-hIgG1-wt-Lambda
EC50 (human CCR8 [3]): 4.8 nM | EC50 (cynomolgus CCR8 [4]): 1.8 nM | Activity in % [5]: 52.9% | Kd [5]: ~1.39 nM | koff [5]: ~5.87 s⁻¹ | kon [5]: ~4.23e+09 M⁻¹ s⁻¹ | Activity in % [6]: 23.8% | Kd [6]: ~2.87 nM | koff [6]: ~16 s⁻¹ | kon [6]: ~5.56e+09 M⁻¹ s⁻¹ | Activity in % [7]: 78.5% | Kd [7]: ~0.868 nM | koff [7]: ~10.7 s⁻¹ | Activity in % [8]: 17% | Kd [8]: ~2.88 nM | koff [8]: ~0.0222 s⁻¹ | kon [8]: ~7.69e+06 M⁻¹ s⁻¹

B3: TPP-17581 (antibody, human IgG1, lambda, V domains shown)
VH: EVQLLESGGGLVQPGGSLRLSCAASGFTFSNYRMTWVRQAPGKGLEWVSGINWNGGSTGYADSVKGRFTISRDNSKNTLYLQMNSLRAEDTAVYYCARGRFDTRGFYGFDYWGQGTLVTVSS
VL: QSVLTQPPSASGTPGQRVTISCTGSSSNIGAGYDVHWYQQLPGTAPKLLIYSHNQRPSGVPDRFSGSKSGTSASLAISGLRSEDEADYYCSAWDSSLSAWVFGGGTKLTVLG
notes: also called 497A-M177-L03-1-hIgG1Lambda
binding result (human CCR8 [1]): binds | binding result (cynomolgus CCR8 [2]): binds

B4: TPP-18207 (antibody, human IgG1, lambda, V domains shown)
VH: EVQLLESGGGLVQPGGSLRLSCAASGFTFSNAWMSWVRQAPGKGLEWVSGINWNGGSTGYADSVKGRFTISRDNSKNTLYLQMNSLRAEDTAVYYCARTYTGNYGPYFDYWGQGTLVTVSS
VL: QSVLTQPPSASGTPGQRVTISCTGSSSNIGAGYDVHWYQQLPGTAPKLLIYKNNQRPSGVPDRFSGSKSGTSASLAISGLRSEDEADYYCAAWDDSLRGWVFGGGTKLTVLG
notes: also called 001-B08_497A-M301-B18 + 497A-M316-D16-hIgG1Lambda
binding result (human CCR8 [1]): binds | binding result (cynomolgus CCR8 [2]): binds

B5: TPP-17576 (antibody, human IgG1, lambda, V domains shown)
VH: EVQLLESGGGLVQPGGSLRLSCAASGFTFSSYAMSWVRQAPGKGLEWVGRIRSKANSYATAYAASVKGRFTISRDNSKNTLYLQMNSLRAEDTAVYYCTRPLDSWGQGTLVTVSS
VL: QSVLTQPPSASGTPGQRVTISCSGSSSNIGNNAVNWYQQLPGTAPKLLIYRNNQRSSGVPDRFSGSKSGTSASLAISGLRSEDEADYYCQSYDNSLSASVFGGGTKLTVLG
notes: also called 497A-M136-021-1-hIgG1Lambda
binding result (human CCR8 [1]): binds | binding result (cynomolgus CCR8 [2]): binds

B6: TPP-17579 (antibody, human IgG1, lambda, V domains shown)
VH: EVQLLESGGGLVQPGGSLRLSCAASGFTFVTYWMTWVRQAPGKGLEWVSGVSWNGSRTHYVDSVKRRFTISRDNSKNTLYLQMNSLRAEDTAVYYCARYSGYPDYYGMDVWGQGTLVTVSS
VL: QSVLTQPPSASGTPGQRVTISCSGSWSNIGNDNVYWYQQLPGTAPKLLIYRNNQRPSGVPDRFSGSKSGTSASLAISGLRSEDEADYYCQSYDRSLSGSVFGGGTKLTVLG
notes: also called 497A-M180-K04-1-hIgG1Lambda
binding result (human CCR8 [1]): binds | binding result (cynomolgus CCR8 [2]): binds

B7: TPP-17580 (antibody, human IgG1, lambda, V domains shown)
VH: EVQLLESGGGLVQPGGSLRLSCAASGFTFSSYGMHWVRQAPGKGLEWVSGVSWNGSRTRYADSVKGRFTISRDNSKNTLYLQMNSLRAEDTAVYYCTRGSYNSGWYAVSWGQGTLVTVSS
VL: QSVLTQPPSASGTPGQRVTISCSGSSSNIGSYPVNWYQQLPGTAPKLLIYRNNQRPSGVPDRFSGSKSGTSASLAISGLRSEDEADYYCSSYSVTDNLIFGGGTKLTVLG
notes: also called 497A-M193-A08-1-hIgG1Lambda
binding result (human CCR8 [1]): binds | binding result (cynomolgus CCR8 [2]): binds

B8: TPP-14095 (antibody, human IgG1, lambda, V domains shown)
VH: EVQLLESGGGLVQPGGSLRLSCAASGFTFSSYGMHWVRQAPGKGLEWVSAISGSGGSTYYADSVKGRFTISRDNSKNTLYLQMNSLRAEDTAVYYCARGRQLGSWGQGTLVTVSS
VL: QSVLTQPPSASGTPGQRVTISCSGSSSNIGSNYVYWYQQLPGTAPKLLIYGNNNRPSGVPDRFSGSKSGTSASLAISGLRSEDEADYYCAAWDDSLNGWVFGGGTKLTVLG
notes: anti-murine CCR8, human IgG1 lambda; also called 497A-M005-E07-hIgG1Lambda
binding result (human CCR8 [9]): no binding | binding result (cynomolgus CCR8 [10]): no binding | EC50 (murine CCR8 [11]): 0.7 nM | IC50, Ca flux assay (murine CCR8 [12]): 1.65 nM

B9: TPP-27495 (antibody, human IgG1, lambda)
heavy: EVQLLESGGGLVQPGGSLRLSCAASGFTFSSYGMHWVRQAPGKGLEWVSAINWNGGSTGYADSVKGRFTISRDNSKNTLYLQMNSLRAEDTAVYYCARGHHSGYDGRFFDYWGQGTLVTVSSASTKGPSVFPLAPSSKSTSGGTAALGCLVKDYFPEPVTVSWNSGALTSGVHTFPAVLQSSGLYSLSSVVTVPSSSLGTQTYICNVNHKPSNTKVDKKVEPKSCDKTHTCPPCPAPELLGGPSVFLFPPKPKDTLYITREPEVTCVVVDVSHEDPEVKFNWYVDGVEVHNAKTKPREEQYNSTYRVVSVLTVLHQDWLNGKEYKCKVSNKALPAPIEKTISKAKGQPREPQVYTLPPSRDELTKNQVSLTCLVKGFYPSDIAVEWESNGQPENNYKTTPPVLDSDGSFFLYSKLTVDKSRWQQGNVFSCSVMHEALHNHYTQKSLSLSPGK
light: not shown
modifications: 70% afucosylated
notes: also called TPP-27495 (YTE); copies: 2 + 2
EC50 (human CCR8 [13]): 1.32 nM | EC50 (cynomolgus CCR8 [14]): 0.535 nM | Kd (human FcRn): 29 nM | Kd (cynomolgus FcRn): 30 nM | Kd (mouse FcRn): 33 nM | EC50 (human CCR8 [15]): 3.25 nM | pH at Elution [16]: 7.88 pH
